Results published in patent US20190134153A1, “IMMUNOMODULATORY EFFECT OF INHALED KINASE INHIBITOR PEPTIDES IN LUNG” (MOERAE MATRIX, INC., priority 2017, published 2019).

Key:
Assay in all cases: Kinase Profiling Assay
Format in all cases: biochemical
Details in all cases: 100 μM
Fes(h) = Fes(h) (Homo sapiens, UniProt P07332)
TSSK2(h) = target: T1, TSSK2(h) (Homo sapiens, UniProt Q96PF2)
T1 sequence (Q96PF2 1-358): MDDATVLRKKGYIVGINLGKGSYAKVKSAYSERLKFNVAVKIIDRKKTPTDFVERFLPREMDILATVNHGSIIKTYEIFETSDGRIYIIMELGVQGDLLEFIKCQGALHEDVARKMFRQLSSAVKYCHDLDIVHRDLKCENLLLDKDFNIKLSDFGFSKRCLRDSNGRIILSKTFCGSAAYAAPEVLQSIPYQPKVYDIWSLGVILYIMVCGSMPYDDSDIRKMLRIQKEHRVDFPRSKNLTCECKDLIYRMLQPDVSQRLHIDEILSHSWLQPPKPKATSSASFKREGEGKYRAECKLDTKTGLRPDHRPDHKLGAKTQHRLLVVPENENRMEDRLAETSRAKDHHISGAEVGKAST

Abl(T315I)(h) = Abl(T315I)(h) (Homo sapiens, UniProt P00519, T315I)
Arg(h) = Arg(h) (Homo sapiens, UniProt P42684)
Sequence of Arg(h) (P42684 whole entry): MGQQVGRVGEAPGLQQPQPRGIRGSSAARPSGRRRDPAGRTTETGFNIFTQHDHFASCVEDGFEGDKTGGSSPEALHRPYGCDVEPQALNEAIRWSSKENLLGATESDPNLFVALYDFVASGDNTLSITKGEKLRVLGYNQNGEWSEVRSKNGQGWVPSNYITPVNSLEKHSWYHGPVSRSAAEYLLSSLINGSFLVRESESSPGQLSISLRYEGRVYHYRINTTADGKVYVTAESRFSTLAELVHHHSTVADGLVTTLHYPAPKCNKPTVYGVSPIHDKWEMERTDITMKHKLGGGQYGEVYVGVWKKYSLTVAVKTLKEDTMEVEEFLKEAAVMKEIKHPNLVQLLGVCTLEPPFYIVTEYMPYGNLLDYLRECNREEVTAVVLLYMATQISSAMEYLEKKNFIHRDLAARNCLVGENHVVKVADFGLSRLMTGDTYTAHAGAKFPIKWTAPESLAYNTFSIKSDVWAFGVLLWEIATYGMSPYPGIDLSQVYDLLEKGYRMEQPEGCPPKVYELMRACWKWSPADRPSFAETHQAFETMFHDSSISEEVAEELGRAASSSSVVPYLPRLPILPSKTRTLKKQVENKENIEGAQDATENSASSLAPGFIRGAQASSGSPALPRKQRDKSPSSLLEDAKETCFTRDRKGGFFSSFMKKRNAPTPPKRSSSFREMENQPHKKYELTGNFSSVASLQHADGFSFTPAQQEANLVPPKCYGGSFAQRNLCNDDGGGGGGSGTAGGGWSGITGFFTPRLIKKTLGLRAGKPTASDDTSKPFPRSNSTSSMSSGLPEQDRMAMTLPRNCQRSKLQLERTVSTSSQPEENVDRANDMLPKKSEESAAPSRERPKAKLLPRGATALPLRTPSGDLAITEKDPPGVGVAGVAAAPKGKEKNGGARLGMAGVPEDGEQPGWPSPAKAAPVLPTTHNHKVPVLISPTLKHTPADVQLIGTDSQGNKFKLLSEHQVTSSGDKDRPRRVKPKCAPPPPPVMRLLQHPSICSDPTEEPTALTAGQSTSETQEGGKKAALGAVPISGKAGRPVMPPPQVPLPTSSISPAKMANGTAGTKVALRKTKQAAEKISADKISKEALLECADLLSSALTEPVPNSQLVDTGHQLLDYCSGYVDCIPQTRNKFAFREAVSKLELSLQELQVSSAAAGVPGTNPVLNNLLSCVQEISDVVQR

MLK1(h) = MLK1(h) (Homo sapiens, UniProt P80192)
Sequence of MLK1(h) (P80192 whole entry): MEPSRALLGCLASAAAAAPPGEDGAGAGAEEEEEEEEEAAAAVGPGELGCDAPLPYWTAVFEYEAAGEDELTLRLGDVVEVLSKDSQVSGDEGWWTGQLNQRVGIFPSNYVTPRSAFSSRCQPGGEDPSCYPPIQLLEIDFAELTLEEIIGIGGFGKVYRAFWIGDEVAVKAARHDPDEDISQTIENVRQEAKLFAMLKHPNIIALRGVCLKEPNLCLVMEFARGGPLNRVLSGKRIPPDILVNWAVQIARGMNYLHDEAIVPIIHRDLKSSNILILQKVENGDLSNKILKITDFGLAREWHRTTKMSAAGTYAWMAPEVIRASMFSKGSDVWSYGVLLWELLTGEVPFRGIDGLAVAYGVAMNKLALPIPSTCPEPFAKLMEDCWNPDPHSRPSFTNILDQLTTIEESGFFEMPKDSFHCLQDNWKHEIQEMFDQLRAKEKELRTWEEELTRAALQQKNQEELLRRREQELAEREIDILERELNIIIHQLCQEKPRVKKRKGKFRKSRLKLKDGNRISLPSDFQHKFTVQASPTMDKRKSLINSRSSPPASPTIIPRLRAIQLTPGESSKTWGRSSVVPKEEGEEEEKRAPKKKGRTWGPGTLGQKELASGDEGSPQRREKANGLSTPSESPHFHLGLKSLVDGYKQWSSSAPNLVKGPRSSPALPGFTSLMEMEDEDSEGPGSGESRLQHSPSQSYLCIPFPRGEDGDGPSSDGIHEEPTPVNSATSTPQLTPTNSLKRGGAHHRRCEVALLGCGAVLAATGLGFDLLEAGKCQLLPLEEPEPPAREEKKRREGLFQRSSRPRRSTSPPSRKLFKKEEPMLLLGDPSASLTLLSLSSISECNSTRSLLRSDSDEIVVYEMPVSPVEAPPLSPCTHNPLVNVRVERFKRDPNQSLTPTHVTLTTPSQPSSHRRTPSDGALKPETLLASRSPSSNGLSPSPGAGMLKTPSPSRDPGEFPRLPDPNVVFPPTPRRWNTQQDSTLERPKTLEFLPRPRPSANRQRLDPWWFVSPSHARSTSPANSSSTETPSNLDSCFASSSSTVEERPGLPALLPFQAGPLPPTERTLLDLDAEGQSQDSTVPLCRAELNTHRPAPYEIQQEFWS

ErbB4(h) = ErbB4(h) (Homo sapiens, UniProt Q15303)
Sequence of ErbB4(h) (Q15303 26-1308): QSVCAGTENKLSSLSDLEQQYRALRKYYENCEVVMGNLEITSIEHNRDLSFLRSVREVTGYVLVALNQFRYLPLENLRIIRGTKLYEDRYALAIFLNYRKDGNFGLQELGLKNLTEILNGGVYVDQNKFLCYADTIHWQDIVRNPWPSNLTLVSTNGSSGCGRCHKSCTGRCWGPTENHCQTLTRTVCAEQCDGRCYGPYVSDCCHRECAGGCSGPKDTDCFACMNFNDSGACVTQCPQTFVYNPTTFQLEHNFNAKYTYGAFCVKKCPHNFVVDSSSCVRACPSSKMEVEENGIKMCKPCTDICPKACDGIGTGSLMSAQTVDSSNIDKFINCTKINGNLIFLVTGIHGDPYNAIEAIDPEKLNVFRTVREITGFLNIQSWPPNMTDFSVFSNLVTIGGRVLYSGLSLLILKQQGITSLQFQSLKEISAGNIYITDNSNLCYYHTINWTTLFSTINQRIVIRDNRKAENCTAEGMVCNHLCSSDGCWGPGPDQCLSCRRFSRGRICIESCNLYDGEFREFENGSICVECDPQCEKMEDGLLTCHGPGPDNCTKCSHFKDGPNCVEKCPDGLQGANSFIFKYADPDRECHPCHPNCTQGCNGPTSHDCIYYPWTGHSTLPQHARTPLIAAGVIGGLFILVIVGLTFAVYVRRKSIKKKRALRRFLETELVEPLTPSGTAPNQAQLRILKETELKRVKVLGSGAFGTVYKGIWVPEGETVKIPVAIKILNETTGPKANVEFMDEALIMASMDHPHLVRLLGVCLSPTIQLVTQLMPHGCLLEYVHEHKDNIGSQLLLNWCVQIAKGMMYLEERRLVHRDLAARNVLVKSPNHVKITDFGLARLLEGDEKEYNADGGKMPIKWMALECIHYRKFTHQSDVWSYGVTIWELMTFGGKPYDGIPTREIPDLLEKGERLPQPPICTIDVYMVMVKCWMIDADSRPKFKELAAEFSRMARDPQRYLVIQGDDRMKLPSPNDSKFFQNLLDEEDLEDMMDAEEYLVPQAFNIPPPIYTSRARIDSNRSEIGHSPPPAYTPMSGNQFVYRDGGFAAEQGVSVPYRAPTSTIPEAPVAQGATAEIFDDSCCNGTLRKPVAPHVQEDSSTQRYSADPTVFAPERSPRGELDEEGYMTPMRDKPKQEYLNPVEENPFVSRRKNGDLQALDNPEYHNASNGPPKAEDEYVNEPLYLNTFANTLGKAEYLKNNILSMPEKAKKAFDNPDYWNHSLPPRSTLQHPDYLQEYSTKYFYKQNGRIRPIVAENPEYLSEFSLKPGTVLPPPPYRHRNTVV

Axl(h) = Axl(h) (Homo sapiens, UniProt P30530)
MEK1(h) = MEK1(h) (Homo sapiens, UniProt Q02750)
ZIPK(h) = ZIPK(h) (Homo sapiens, UniProt O43293)
Sequence of ZIPK(h) (O43293 whole entry): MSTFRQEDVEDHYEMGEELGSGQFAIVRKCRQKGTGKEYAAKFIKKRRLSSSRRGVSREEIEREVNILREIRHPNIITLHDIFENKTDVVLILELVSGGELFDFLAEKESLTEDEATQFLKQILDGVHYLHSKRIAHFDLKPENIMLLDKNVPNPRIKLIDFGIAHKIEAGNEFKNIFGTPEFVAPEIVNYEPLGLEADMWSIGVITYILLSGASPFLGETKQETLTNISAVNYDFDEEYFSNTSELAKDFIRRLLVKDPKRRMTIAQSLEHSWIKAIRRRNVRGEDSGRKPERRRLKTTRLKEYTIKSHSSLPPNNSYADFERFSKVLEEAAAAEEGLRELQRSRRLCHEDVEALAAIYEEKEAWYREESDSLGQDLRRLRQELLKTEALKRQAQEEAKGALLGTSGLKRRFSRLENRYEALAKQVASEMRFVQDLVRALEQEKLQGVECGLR

SAPK2a(T106M)(h) = SAPK2a(T106M)(h) (Homo sapiens, UniProt Q16539, T106M)
Sequence of SAPK2a(T106M)(h) (Q16539 whole entry T106M): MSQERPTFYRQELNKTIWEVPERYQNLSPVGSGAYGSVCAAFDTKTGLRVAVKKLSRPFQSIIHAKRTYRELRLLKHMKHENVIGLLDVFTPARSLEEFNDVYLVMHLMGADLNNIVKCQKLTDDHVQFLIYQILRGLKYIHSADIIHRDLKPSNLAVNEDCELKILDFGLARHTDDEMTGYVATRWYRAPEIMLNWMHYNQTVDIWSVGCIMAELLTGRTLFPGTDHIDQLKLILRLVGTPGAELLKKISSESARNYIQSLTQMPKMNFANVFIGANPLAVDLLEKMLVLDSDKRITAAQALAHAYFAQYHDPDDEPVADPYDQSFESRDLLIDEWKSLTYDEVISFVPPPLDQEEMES

FGFR1(V561M)(h) = FGFR1(V561M)(h) (Homo sapiens, UniProt P11362, V561M)
PDK1(h) = target: T2, PDK1(h) (Homo sapiens, UniProt O15530)
T2 sequence (O15530 1-556): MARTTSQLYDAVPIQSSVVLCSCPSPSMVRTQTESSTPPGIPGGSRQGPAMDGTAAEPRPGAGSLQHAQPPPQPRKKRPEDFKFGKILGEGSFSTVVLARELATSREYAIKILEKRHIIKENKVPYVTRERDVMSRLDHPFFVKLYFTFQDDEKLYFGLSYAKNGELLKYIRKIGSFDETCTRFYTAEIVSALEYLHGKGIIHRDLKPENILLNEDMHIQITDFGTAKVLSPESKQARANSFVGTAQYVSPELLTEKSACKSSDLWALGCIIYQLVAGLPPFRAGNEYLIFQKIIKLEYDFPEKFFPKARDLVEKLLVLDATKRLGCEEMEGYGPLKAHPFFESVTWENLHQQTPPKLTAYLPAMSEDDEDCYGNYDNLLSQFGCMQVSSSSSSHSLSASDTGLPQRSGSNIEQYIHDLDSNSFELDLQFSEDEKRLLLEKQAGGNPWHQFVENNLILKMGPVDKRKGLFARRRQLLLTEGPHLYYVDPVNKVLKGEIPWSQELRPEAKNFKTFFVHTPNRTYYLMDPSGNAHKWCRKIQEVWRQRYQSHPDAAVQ

PKD2(h) = target: T3, PKD2(h) (Homo sapiens, UniProt Q9BZL6)
T3 sequence (Q9BZL6 1-878): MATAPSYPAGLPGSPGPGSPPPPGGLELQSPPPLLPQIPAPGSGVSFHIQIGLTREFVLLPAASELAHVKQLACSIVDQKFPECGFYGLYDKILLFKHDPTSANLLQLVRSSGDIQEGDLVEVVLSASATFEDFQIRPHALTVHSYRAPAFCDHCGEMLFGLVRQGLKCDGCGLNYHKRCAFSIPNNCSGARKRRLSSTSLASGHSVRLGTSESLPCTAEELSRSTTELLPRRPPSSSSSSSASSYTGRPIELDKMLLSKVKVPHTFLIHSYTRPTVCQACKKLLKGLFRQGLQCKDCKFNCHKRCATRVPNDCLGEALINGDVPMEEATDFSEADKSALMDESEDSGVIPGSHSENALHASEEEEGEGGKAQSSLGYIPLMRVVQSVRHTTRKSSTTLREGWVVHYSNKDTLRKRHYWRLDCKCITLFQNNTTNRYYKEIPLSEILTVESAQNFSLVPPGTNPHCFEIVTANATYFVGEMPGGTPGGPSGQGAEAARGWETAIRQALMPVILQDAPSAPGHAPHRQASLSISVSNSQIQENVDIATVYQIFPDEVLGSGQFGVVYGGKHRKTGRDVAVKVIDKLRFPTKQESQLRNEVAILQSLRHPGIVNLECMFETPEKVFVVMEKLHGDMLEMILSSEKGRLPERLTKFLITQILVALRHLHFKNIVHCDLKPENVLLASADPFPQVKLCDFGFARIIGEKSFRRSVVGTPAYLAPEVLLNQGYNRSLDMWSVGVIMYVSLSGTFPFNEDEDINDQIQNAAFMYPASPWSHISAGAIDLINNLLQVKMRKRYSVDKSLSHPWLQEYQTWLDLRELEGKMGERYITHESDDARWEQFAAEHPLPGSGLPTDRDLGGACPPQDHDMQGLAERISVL

BTK(h) = BTK(h) (Homo sapiens, UniProt Q06187)
Sequence of BTK(h) (Q06187 whole entry): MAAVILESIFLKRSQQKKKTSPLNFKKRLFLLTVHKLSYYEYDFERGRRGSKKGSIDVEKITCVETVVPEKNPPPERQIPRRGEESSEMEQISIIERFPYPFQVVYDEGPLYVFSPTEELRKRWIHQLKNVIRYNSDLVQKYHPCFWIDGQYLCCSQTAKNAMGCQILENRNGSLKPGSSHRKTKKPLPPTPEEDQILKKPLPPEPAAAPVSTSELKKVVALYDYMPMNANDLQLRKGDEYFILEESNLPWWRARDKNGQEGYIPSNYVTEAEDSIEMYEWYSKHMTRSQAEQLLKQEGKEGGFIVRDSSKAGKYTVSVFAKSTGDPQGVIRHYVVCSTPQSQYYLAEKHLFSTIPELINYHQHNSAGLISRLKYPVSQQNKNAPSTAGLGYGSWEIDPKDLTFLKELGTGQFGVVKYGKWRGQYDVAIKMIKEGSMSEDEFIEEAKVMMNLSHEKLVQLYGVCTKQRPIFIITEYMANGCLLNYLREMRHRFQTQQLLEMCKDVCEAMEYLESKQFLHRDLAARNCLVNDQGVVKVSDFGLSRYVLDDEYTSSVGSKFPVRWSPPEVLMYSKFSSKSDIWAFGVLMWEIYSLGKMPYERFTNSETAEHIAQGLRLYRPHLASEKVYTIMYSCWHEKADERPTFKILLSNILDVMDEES

Sequence	% activity (Fes(h)) [%]	% activity (TSSK2(h)) [%]	% activity (Abl(T315I)(h)) [%]	% activity (Arg(h)) [%]	% activity (MLK1(h)) [%]	% activity (ErbB4(h)) [%]	% activity (Axl(h)) [%]	% activity (MEK1(h)) [%]	% activity (ZIPK(h)) [%]	% activity (SAPK2a(T106M)(h)) [%]	% activity (FGFR1(V561M)(h)) [%]	% activity (PDK1(h)) [%]	% activity (PKD2(h)) [%]	% activity (BTK(h)) [%]
FAKLAARLYRKALARQLGVAA [MMI-0300]	20	98	97	72	40	40	52	77	28	97	74	135	33	–
KAFAKLAARLYRKALARQLGVAA [MMI-0400]	16	94	–	84	33	0	41	77	13	99	74	159	25	94
YARAAARQARAKALNRQLGVA [MMI-0200]	74	91	108	82	84	82	99	–	67	100	72	143	78	100
HRRIKAWLKKIKALARQLGVAA [MMI-0500]	23	92	16	22	43	2	12	21	1	32	–	178	10	18
